Assays:
[1] = molecular target: human PDGFR on BJ-5ta human fibroblasts (human) (UniProt P09619); assay: flow cytometry on cells, soluble ligand titrated
[2] = molecular target: human PDGFR on BJ-5ta human fibroblasts (human) (UniProt P09619); assay: flow cytometry on cells, soluble ligand titrated 3 h at 4 C, anti-FLAG-PE
[3] = molecular target: human PDGFR on BJ-5ta human fibroblasts (human) (UniProt P09619); assay: flow cytometry on BJ-5ta cells, soluble ligand titrated 5 h at 4 C, anti-FLAG-PE
[4] = molecular target: human PDGFR on BJ-5ta human fibroblasts (human) (UniProt P09619); assay: flow cytometry titration of the soluble FLAG-tagged protein on BJ-5ta cells, anti-FLAG detection
[5] = molecular target: mouse PDGFR on NIH/3T3 mouse fibroblasts (mouse) (UniProt P05622); assay: flow cytometry on cells, soluble ligand titrated
[6] = molecular target: mouse PDGFR on NIH/3T3 mouse fibroblasts (mouse) (UniProt P05622); assay: flow cytometry on cells, soluble ligand titrated 3 h at 4 C, anti-FLAG-PE

| fold decrease in Kd compared to PV6 [1] [fold] | Kd [2] [pM] | Kd [3] [pM] | EC50 (read off the curve) [4] [pM] | fold decrease in Kd compared to PV6 [5] [fold] | Kd [6] [pM] | Binder |
| --- | --- | --- | --- | --- | --- | --- |
| 41 | 10.9 | 5.1 | 6 |  |  | PVAM-S (PV R32A), soluble, FLAG and hexahistidine tags (designed binder) DYKDDDDKIAEPAMIAECHPIETLVDILQEYPDEIGYIFKPSCVPLMRCGGCCNNRNVQCRPTEESNITMQIMRIKPHRGQHIGEMSFLQHNKCRCETVAAGSTSGSGKSSEGKGEVVKFMDVYQRSYCKTRTEVFEISRRLIDATNANFLVWPPCVEVQRCSGCCNHEGLECVPTQVQLRPVQVRKIEFVRKKPIFKKATVTLEDHLACECRPKKDHHHHHH |
| 63 | 7.1 |  |  | 22 | 15 | PV RF (PV K87R chain 1 and PV I182F chain 2), soluble, FLAG and hexahistidine tags (designed binder) DYKDDDDKIAEPAMIAECHPIETLVDIFQEYPDEIEYIFKPSCVPLMRCGGCCNNRNVQCRPTEESNITMQIMRIKPHQGQHIGEMSFLQHNKCRCETVAAGSTSGSGKSSEGKGEVVKFMDVYQRSYCKTRTEVFEISRRLIDRTNANFLVWPPCVEVQRCSGCCNDEGLECVPTQVQLRPVQVRKIEFVRKKPIFKKATVTLEDHLACECRPKKDHHHHHH |
